Test results from publication PMC10053439.

Target: GAD-SNX5, C-terminally truncated splice variant of SNX5 lacking the last 45 amino acids
Experiment: yeast two-hybrid β-galactosidase liquid assay
Settings: mean of four transformants with SD; parent: est. 190; read off a plot

“LexA-VPS13A(VAB), LexA DNA-binding domain fusion to the VAB domain of VPS13A (from UniProt Q96RL7) N2418S” was tested, and the response was 21 U.
